Numbered stars: 1 amine (or outer) side, 2 acyl side, 3 side chain; on linkers, the order of the positions; unused ones are H or OH. Bridge positions count the residues as written; N and C are the ends. Side chains are listed from the residue outwards. Ends that are not written are not given here. * marks the point of attachment. C20 diacid = O=C(O)CCCCCCCCCCCCCCCCCCC(=O)*; γGlu = O=C(O)[C@H](CCC(=O)[*:2])N[*:1]
B1: N^ε1-[(4S)-4-carboxy-4-(19-carboxynonadecanoylamino)butanoyl]-[Arg17,Pro21,Pro27,Arg34]-h-amylin (peptide)
peptide: K([γGlu-C20 diacid])CNTATCATQRLANFLRHSSPNFGAIPSSTNVGRNTY-NH2
modifications: disulfide 2-7; N-terminus assumed
SMILES: CC[C@H](C)[C@H](NC(=O)[C@H](C)NC(=O)CNC(=O)[C@H](Cc1ccccc1)NC(=O)[C@H](CC(N)=O)NC(=O)[C@@H]1CCCN1C(=O)[C@H](CO)NC(=O)[C@H](CO)NC(=O)[C@H](Cc1c[nH]cn1)NC(=O)[C@H](CCCNC(=N)N)NC(=O)[C@H](CC(C)C)NC(=O)[C@H](Cc1ccccc1)NC(=O)[C@H](CC(N)=O)NC(=O)[C@H](C)NC(=O)[C@H](CC(C)C)NC(=O)[C@H](CCCNC(=N)N)NC(=O)[C@H](CCC(N)=O)NC(=O)[C@@H](NC(=O)[C@H](C)NC(=O)[C@@H]1CSSC[C@H](NC(=O)[C@@H](N)CCCCNC(=O)CC[C@H](NC(=O)CCCCCCCCCCCCCCCCCCC(=O)O)C(=O)O)C(=O)N[C@@H](CC(N)=O)C(=O)N[C@@H]([C@@H](C)O)C(=O)N[C@@H](C)C(=O)N[C@@H]([C@@H](C)O)C(=O)N1)[C@@H](C)O)C(=O)N1CCC[C@H]1C(=O)N[C@@H](CO)C(=O)N[C@@H](CO)C(=O)N[C@H](C(=O)N[C@@H](CC(N)=O)C(=O)N[C@H](C(=O)NCC(=O)N[C@@H](CCCNC(=N)N)C(=O)N[C@@H](CC(N)=O)C(=O)N[C@H](C(=O)N[C@@H](Cc1ccc(O)cc1)C(N)=O)[C@@H](C)O)C(C)C)[C@@H](C)O
notes: also called compound 79
B2: N^ε1-[(4S)-4-carboxy-4-(19-carboxynonadecanoylamino)butanoyl]-[His14,Arg17,Pro21,Pro27,Arg34]-h-amylin (peptide)
peptide: K([γGlu-C20 diacid])CNTATCATQRLAHFLRHSSPNFGAIPSSTNVGRNTY-NH2
modifications: disulfide 2-7; N-terminus assumed
SMILES: CC[C@H](C)[C@H](NC(=O)[C@H](C)NC(=O)CNC(=O)[C@H](Cc1ccccc1)NC(=O)[C@H](CC(N)=O)NC(=O)[C@@H]1CCCN1C(=O)[C@H](CO)NC(=O)[C@H](CO)NC(=O)[C@H](Cc1c[nH]cn1)NC(=O)[C@H](CCCNC(=N)N)NC(=O)[C@H](CC(C)C)NC(=O)[C@H](Cc1ccccc1)NC(=O)[C@H](Cc1c[nH]cn1)NC(=O)[C@H](C)NC(=O)[C@H](CC(C)C)NC(=O)[C@H](CCCNC(=N)N)NC(=O)[C@H](CCC(N)=O)NC(=O)[C@@H](NC(=O)[C@H](C)NC(=O)[C@@H]1CSSC[C@H](NC(=O)[C@@H](N)CCCCNC(=O)CC[C@H](NC(=O)CCCCCCCCCCCCCCCCCCC(=O)O)C(=O)O)C(=O)N[C@@H](CC(N)=O)C(=O)N[C@@H]([C@@H](C)O)C(=O)N[C@@H](C)C(=O)N[C@@H]([C@@H](C)O)C(=O)N1)[C@@H](C)O)C(=O)N1CCC[C@H]1C(=O)N[C@@H](CO)C(=O)N[C@@H](CO)C(=O)N[C@H](C(=O)N[C@@H](CC(N)=O)C(=O)N[C@H](C(=O)NCC(=O)N[C@@H](CCCNC(=N)N)C(=O)N[C@@H](CC(N)=O)C(=O)N[C@H](C(=O)N[C@@H](Cc1ccc(O)cc1)C(N)=O)[C@@H](C)O)C(C)C)[C@@H](C)O
notes: also called compound 85
B3: N^ε1-[(4S)-4-carboxy-4-(19-carboxynonadecanoylamino)butanoyl]-[Arg17,Pro21,Pro27,His35]-h-amylin (peptide)
peptide: K([γGlu-C20 diacid])CNTATCATQRLANFLRHSSPNFGAIPSSTNVGSHTY-NH2
modifications: disulfide 2-7; N-terminus assumed
SMILES: CC[C@H](C)[C@H](NC(=O)[C@H](C)NC(=O)CNC(=O)[C@H](Cc1ccccc1)NC(=O)[C@H](CC(N)=O)NC(=O)[C@@H]1CCCN1C(=O)[C@H](CO)NC(=O)[C@H](CO)NC(=O)[C@H](Cc1c[nH]cn1)NC(=O)[C@H](CCCNC(=N)N)NC(=O)[C@H](CC(C)C)NC(=O)[C@H](Cc1ccccc1)NC(=O)[C@H](CC(N)=O)NC(=O)[C@H](C)NC(=O)[C@H](CC(C)C)NC(=O)[C@H](CCCNC(=N)N)NC(=O)[C@H](CCC(N)=O)NC(=O)[C@@H](NC(=O)[C@H](C)NC(=O)[C@@H]1CSSC[C@H](NC(=O)[C@@H](N)CCCCNC(=O)CC[C@H](NC(=O)CCCCCCCCCCCCCCCCCCC(=O)O)C(=O)O)C(=O)N[C@@H](CC(N)=O)C(=O)N[C@@H]([C@@H](C)O)C(=O)N[C@@H](C)C(=O)N[C@@H]([C@@H](C)O)C(=O)N1)[C@@H](C)O)C(=O)N1CCC[C@H]1C(=O)N[C@@H](CO)C(=O)N[C@@H](CO)C(=O)N[C@H](C(=O)N[C@@H](CC(N)=O)C(=O)N[C@H](C(=O)NCC(=O)N[C@@H](CO)C(=O)N[C@@H](Cc1c[nH]cn1)C(=O)N[C@H](C(=O)N[C@@H](Cc1ccc(O)cc1)C(N)=O)[C@@H](C)O)C(C)C)[C@@H](C)O
notes: also called compound 60
B4: N^ε1-[(4S)-4-carboxy-4-(19-carboxynonadecanoylamino)butanoyl]-[Arg17,Pro21,Pro27,His34]-h-amylin (peptide)
peptide: K([γGlu-C20 diacid])CNTATCATQRLANFLRHSSPNFGAIPSSTNVGHNTY-NH2
modifications: disulfide 2-7; N-terminus assumed
SMILES: CC[C@H](C)[C@H](NC(=O)[C@H](C)NC(=O)CNC(=O)[C@H](Cc1ccccc1)NC(=O)[C@H](CC(N)=O)NC(=O)[C@@H]1CCCN1C(=O)[C@H](CO)NC(=O)[C@H](CO)NC(=O)[C@H](Cc1c[nH]cn1)NC(=O)[C@H](CCCNC(=N)N)NC(=O)[C@H](CC(C)C)NC(=O)[C@H](Cc1ccccc1)NC(=O)[C@H](CC(N)=O)NC(=O)[C@H](C)NC(=O)[C@H](CC(C)C)NC(=O)[C@H](CCCNC(=N)N)NC(=O)[C@H](CCC(N)=O)NC(=O)[C@@H](NC(=O)[C@H](C)NC(=O)[C@@H]1CSSC[C@H](NC(=O)[C@@H](N)CCCCNC(=O)CC[C@H](NC(=O)CCCCCCCCCCCCCCCCCCC(=O)O)C(=O)O)C(=O)N[C@@H](CC(N)=O)C(=O)N[C@@H]([C@@H](C)O)C(=O)N[C@@H](C)C(=O)N[C@@H]([C@@H](C)O)C(=O)N1)[C@@H](C)O)C(=O)N1CCC[C@H]1C(=O)N[C@@H](CO)C(=O)N[C@@H](CO)C(=O)N[C@H](C(=O)N[C@@H](CC(N)=O)C(=O)N[C@H](C(=O)NCC(=O)N[C@@H](Cc1c[nH]cn1)C(=O)N[C@@H](CC(N)=O)C(=O)N[C@H](C(=O)N[C@@H](Cc1ccc(O)cc1)C(N)=O)[C@@H](C)O)C(C)C)[C@@H](C)O
notes: also called compound 77
B5: N^ε1-[(4S)-4-carboxy-4-(19-carboxynonadecanoylamino)butanoyl]-[His14,Arg17,Pro21,Pro27,His34]-h-amylin (peptide)
peptide: K([γGlu-C20 diacid])CNTATCATQRLAHFLRHSSPNFGAIPSSTNVGHNTY-NH2
modifications: disulfide 2-7; N-terminus assumed
SMILES: CC[C@H](C)[C@H](NC(=O)[C@H](C)NC(=O)CNC(=O)[C@H](Cc1ccccc1)NC(=O)[C@H](CC(N)=O)NC(=O)[C@@H]1CCCN1C(=O)[C@H](CO)NC(=O)[C@H](CO)NC(=O)[C@H](Cc1c[nH]cn1)NC(=O)[C@H](CCCNC(=N)N)NC(=O)[C@H](CC(C)C)NC(=O)[C@H](Cc1ccccc1)NC(=O)[C@H](Cc1c[nH]cn1)NC(=O)[C@H](C)NC(=O)[C@H](CC(C)C)NC(=O)[C@H](CCCNC(=N)N)NC(=O)[C@H](CCC(N)=O)NC(=O)[C@@H](NC(=O)[C@H](C)NC(=O)[C@@H]1CSSC[C@H](NC(=O)[C@@H](N)CCCCNC(=O)CC[C@H](NC(=O)CCCCCCCCCCCCCCCCCCC(=O)O)C(=O)O)C(=O)N[C@@H](CC(N)=O)C(=O)N[C@@H]([C@@H](C)O)C(=O)N[C@@H](C)C(=O)N[C@@H]([C@@H](C)O)C(=O)N1)[C@@H](C)O)C(=O)N1CCC[C@H]1C(=O)N[C@@H](CO)C(=O)N[C@@H](CO)C(=O)N[C@H](C(=O)N[C@@H](CC(N)=O)C(=O)N[C@H](C(=O)NCC(=O)N[C@@H](Cc1c[nH]cn1)C(=O)N[C@@H](CC(N)=O)C(=O)N[C@H](C(=O)N[C@@H](Cc1ccc(O)cc1)C(N)=O)[C@@H](C)O)C(C)C)[C@@H](C)O
notes: also called compound 81

target: T1, human calcitonin receptor (human, UniProt P30988 25-474); experiment: cell-based or functional assay
T1 sequence (looked up): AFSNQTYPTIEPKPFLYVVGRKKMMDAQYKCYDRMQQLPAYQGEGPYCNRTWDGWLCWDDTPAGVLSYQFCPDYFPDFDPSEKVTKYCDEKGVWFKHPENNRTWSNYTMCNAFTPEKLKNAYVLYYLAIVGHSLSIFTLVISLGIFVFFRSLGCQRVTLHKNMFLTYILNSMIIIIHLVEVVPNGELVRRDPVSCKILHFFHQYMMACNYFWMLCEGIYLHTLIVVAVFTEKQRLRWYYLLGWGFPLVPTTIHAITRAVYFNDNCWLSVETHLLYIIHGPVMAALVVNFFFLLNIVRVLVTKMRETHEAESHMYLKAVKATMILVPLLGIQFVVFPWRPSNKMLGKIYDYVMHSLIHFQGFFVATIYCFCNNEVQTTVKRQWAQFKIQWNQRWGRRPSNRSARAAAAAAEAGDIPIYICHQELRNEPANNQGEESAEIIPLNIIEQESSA

**Q.** How did the “hCTR funct. EC50” value turn out when B1 was run?
**A.** 3.94 nM

**Q.** How did the “hCTR funct. EC50” value turn out when B2 was run?
**A.** 3.88 nM

**Q.** Which “hCTR funct. EC50” value does the source give for B3 here?
**A.** 5.36 nM

**Q.** For B4, which “hCTR funct. EC50” value is on record?
**A.** 5.4 nM

**Q.** For B5, which “hCTR funct. EC50” value is on record?
**A.** 1.73 nM

From US20140087995A1 (published 2014)
